Measurements as given in US20260070984A1 (Boehringer Ingelheim, published 2026).
Like-named read-outs stand apart in the source and are kept apart here.

Tests used:
[1] = target: T1, human PD-1 expressed on cells (human, UniProt Q15116 25-288); test: cell-based or functional assay
[2] = target: T1, human PD-1 expressed on cells; test: cell-based or functional assay; remark: listed apart in the source
[3] = target: T2, recombinant human PD-1 (human, UniProt Q15116 25-167, limits assumed); test: SPR, ProteOn XPR36
T2 construct: Soluble recombinant protein used in SPR; also called PDCD1; purified recombinant human PD-1
T2 sequence (Q15116 25-167 limits assumed): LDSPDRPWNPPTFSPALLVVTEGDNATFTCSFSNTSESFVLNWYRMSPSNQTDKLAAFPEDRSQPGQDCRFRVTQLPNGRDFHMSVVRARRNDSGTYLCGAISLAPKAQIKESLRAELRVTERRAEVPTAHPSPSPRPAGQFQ
Method: Kinetics and binding affinities were measured using the ProteOn™ XPR36 (Biorad, Hercules, CA) surface plasmon resonance optical biosensor using material generated from transient transfection following single column purification.

[4] = target: T1, human PD-1 expressed on cells; test: cell-based or functional assay; remark: listed apart in the source
[5] = target: T1, human PD-1 expressed on cells; test: cell-based or functional assay; remark: listed apart in the source
[6] = target: T2, recombinant human PD-1; test: SPR, ProteOn XPR36, 1:1 binding model
Method: Antibody PD1AB-6-4P (antibody in IgG4Pro backbone disclosed in WO2017/058859 to Celgene) was also tested.

[7] = target: T1, human PD-1 expressed on cells; test: cell-based or functional assay; remark: listed apart in the source
[8] = target: T3, cynomologous PD-1 (cynomolgus monkey, UniProt B0LAJ3 25-170); test: SPR, ProteOn XPR36, 1:1 binding model
T3 construct: Used in SPR; also called cynomolgus PD-1; recombinant cynomologus PD-1
T3 sequence (B0LAJ3 entry or part of it limits assumed): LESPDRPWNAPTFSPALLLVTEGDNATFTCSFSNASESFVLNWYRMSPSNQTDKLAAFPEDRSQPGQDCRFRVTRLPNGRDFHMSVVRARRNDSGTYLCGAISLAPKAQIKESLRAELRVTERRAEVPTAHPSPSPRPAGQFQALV
Method: C) Affinity and kinetic data for the anti-PD-1 antibodies binding to cynomologous PD-1 were measured on the ProteOn™ XPR36 surface plasmon resonance optical biosensor, and globally fit to a 1:1 binding model (Table 11).

[9] = target: T1, human PD-1 expressed on cells; test: DELFIA Eu TRF assay: enhancement of biotin labeled PD-L1 binding to CHO cells expressing PD-1
Method: 10,000 cells were plated and incubated overnight at 37° C.±5% CO2 incubator (humidified incubator). […] Plates were washed twice with 50 μl of 1× TRF Wash Buffer. 20 μL of Eu-Streptavidin reagent was added to the assay plate, and incubated at room temperature for one hour. Enhancement Solution was added and incubated for 30 minutes at RT.

[10] = target: T1, human PD-1 expressed on cells; test: flow cytometry: enhancement of PDL1-biotin/Streptavidin-APC binding to CHO cells expressing PD-1
Method: A second cell-based assay where PD-1 was expressed on CHO cells was also utilized to evaluate PD-1/PD-L1 interactions. […] 50 μl of 2×10⁶ cells/ml were added to each well (100,000 cells/well). Cells were centrifuged and re-suspended in 50 μl of the indicated antibody concentrations and incubated for 60 minutes on ice. […] Cells were washed and resuspended in 180 μl stain buffer +20μ PFA and data was acquired on a BD LSR II.

T1 sequence (Q15116 25-288): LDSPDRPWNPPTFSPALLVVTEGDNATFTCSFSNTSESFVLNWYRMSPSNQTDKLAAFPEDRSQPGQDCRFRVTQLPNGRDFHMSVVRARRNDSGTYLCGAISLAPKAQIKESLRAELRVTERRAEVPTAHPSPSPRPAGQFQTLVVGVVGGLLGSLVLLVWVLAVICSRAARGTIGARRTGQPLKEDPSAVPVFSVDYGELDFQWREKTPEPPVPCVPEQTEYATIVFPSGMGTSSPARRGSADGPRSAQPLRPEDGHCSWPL

Row | Emax Values (%), Average, inhibition of IFNγ [1] | IC50 Values (pM), Average, inhibition of IFNγ [1] | Emax Values (%), inhibition of NFAT activity [2] | IC50 Values (nM), inhibition of NFAT activity [2] | Kd [3] | koff [3] | kon [3] | Emax Values (%), Average, inhibition of IFNγ [4] | IC50 Values (pM), Geomean, inhibition of IFNγ [4] | Emax Values (%), Average, inhibition of IL-17A [5] | IC50 Values (pM), Geomean, inhibition of IL-17A [5] | Kd [6] | koff [6] | kon [6] | IC50 Values (pM), Geomean, inhibition of IL-21 [7] | Kd [8] | koff [8] | kon [8] | EC50 (read off the curve) [9] | EC50 (read off the curve) [10] | Binder
1 |  |  | 40% | 0.14 nM | 2.71 nM | 0.000286 s⁻¹ | 106000 M⁻¹ s⁻¹ | 56.7% | 38.5 pM |  |  |  |  |  |  |  |  |  |  |  | Chimeric 820C3 (antibody, V domains shown, Mouse variable domains in human IgG4Pro (Ser228Pro) backbone; also called chimeric 820C3 in IgG4Pro; 820C3-4P) VH: QIQLQQSGPELVKTGASVKISCKASGNTFNSNYIQWVKQRPGQGLEWIGWIYPGDGSTNYSEKFKGKTTLTADKSSSTAYMLVSSLTSEDSAVYFCARYGPVPFDYWGQGTTLSVSS VL: DIQMTQTTSSLSASLGDRVTISCSASQDIFNYLNWYQQKPDGTVKLLIYYTSSLHSGVPSRFSGSGSGTDFSLTISNLEPEDIATYYCQQYSNLPYTFGGGTKLEIK
2 |  |  | 42.6% | 0.13 nM | 2.58 nM | 0.000582 s⁻¹ | 226000 M⁻¹ s⁻¹ | 66.5% | 18 pM | 70% | 14.4 pM | 2.58 nM | 0.000582 s⁻¹ | 226000 M⁻¹ s⁻¹ | 12 pM | 38.9 nM | 0.00721 s⁻¹ | 185000 M⁻¹ s⁻¹ |  |  | Chimeric 723C2 in IgG4Pro (antibody, V domains shown) VH: EVQLVESGGGLVQPGGSLKLSCAASGFTFSDYYMSWVRQTPEKRLEWVAYISSGGGSSYYPDSVKGRFTISRDNTKNTLYLQMSSLKSEDTAVYYCARLPHYFAMDYWGQGTSVTVSS VL: EIVLTQSPTTMAASPGEKITITCSASSSISSDYLHWYQQKPGFSPELLIYRTSNLASGVPARFSGSGSGTSYSLTIGSMEAEDVATYYCQQGTSLPRAFGGGTKLEIKR
3 |  |  |  |  |  |  |  |  |  |  |  |  |  |  |  |  |  |  | ~2 nM | ~6 nM | antibody 723C2 in human IgG4Pro backbone without the DC to DY mutation in H-CDR3 (antibody, V domains shown, Mouse 723C2 variable domains (H-CDR3 ending DC) in human IgG4Pro backbone; also called 723C2-4P) VH: EVQLVESGGGLVQPGGSLKLSCAASGFTFSDYYMSWVRQTPEKRLEWVAYISSGGGSSYYPDSVKGRFTISRDNTKNTLYLQMSSLKSEDTAVYYCARLPHYFAMDCWGQGTSVTVSS VL: EIVLTQSPTTMAASPGEKITITCSASSSISSDYLHWYQQKPGFSPELLIYRTSNLASGVPARFSGSGSGTSYSLTIGSMEAEDVATYYCQQGTSLPRAFGGGTKLEIK
4 |  |  |  |  |  |  |  | 48.9% | 18.4 pM | 63.4% | 25.3 pM | 1.62 nM | 0.000421 s⁻¹ | 259000 M⁻¹ s⁻¹ |  | 32.9 nM | 0.00558 s⁻¹ | 169000 M⁻¹ s⁻¹ |  |  | Antibody B (antibody, human IgG4 S228P, kappa, V domains shown, Humanized 723C2, human IgG4Pro/kappa; also called 723C2-IgG4Pro-461-41 with IgK-462-07) VH: EVQLVESGGGLVQPGGSLRLSCAASGFTFSDYYMSWVRQAPGKGLEWVAYISSGGGSSYYPDLVKGRFTISRDNAKNSLYLQMQSLRAEDTAVYYCARLPHYFAMDYWGQGTLVTVSS VL: DIQMTQSPSSLSASVGDRVTITCQASQSISSDYLHWYQQKPGKAPKLLIYRTSNLETGVPSRFSGSGSGTDFTFTISSLQPEDIATYYCQQGTSLPRAFGQGTKLEIKR
5 |  |  |  |  |  |  |  | 50.1% | 18 pM | 63.9% | 31.9 pM | 2.58 nM | 0.000574 s⁻¹ | 222000 M⁻¹ s⁻¹ |  | 45.2 nM | 0.00674 s⁻¹ | 149000 M⁻¹ s⁻¹ |  |  | Antibody D (antibody, human IgG4 S228P, kappa, V domains shown, Humanized 723C2, human IgG4Pro/kappa; also called 723C2-IgG4Pro-461-44 with IgK-462-08) VH: EVQLVESGGGLVQPGGSLRLSCAASGFTFSDYYMSWVRQAPGKGLEWVAYISSGGGSSYYPDLVKGRFTISRDNAKQSLYLQMNSLRAEDTAVYYCARLPHYFAMDYWGQGTLVTVSS VL: DIQMTQSPSSLSASVGDRVTITCQASQSISSDYLHWYQQKPGKAPKLLIYRTSNLESGVPSRFSGSGSGTDFTFTISSLQPEDIATYYCQQGTSLPRAFGQGTKLEIKR

The next lines start with the binder.

Row | Binder | Emax Values (%), Average, inhibition of IFNγ [1] | IC50 Values (pM), Average, inhibition of IFNγ [1] | Emax Values (%), inhibition of NFAT activity [2] | IC50 Values (nM), inhibition of NFAT activity [2] | Kd [3] | koff [3] | kon [3] | Emax Values (%), Average, inhibition of IFNγ [4] | IC50 Values (pM), Geomean, inhibition of IFNγ [4] | Emax Values (%), Average, inhibition of IL-17A [5] | IC50 Values (pM), Geomean, inhibition of IL-17A [5] | Kd [6] | koff [6] | kon [6] | IC50 Values (pM), Geomean, inhibition of IL-21 [7] | Kd [8] | koff [8] | kon [8] | EC50 (read off the curve) [9] | EC50 (read off the curve) [10]
6 | 814E10 (mouse IgG1 backbone) (antibody, V domains shown) VH: QIQLQQSGPELVKPGASVKISCKASGYTFTSYYIQWVKQRPGQGLEWIGWIYPGDGTTNYNENFKGKTTLTADKSSSTVYMLLSSLTSEDSAVYFCARYGLVPFDYWGQGTTLTVSS VL: DIQMTQTTSSLSASLGDRVTISCSASQDIINYLNWYQQKPDGTVKLLIYSTSSLHSGVSLRFSGSGSGTDYSLTISNLEPEDVATYYCHQYSQLPYTFGGGTKLEIK | 63% | 74.2 pM | 40.7% | 0.25 nM |  |  |  |  |  |  |  |  |  |  |  |  |  |  |  | 
7 | 820C3 (mouse IgG1 backbone) (antibody, V domains shown) VH: QIQLQQSGPELVKTGASVKISCKASGNTFNSNYIQWVKQRPGQGLEWIGWIYPGDGSTNYSEKFKGKTTLTADKSSSTAYMLVSSLTSEDSAVYFCARYGPVPFDYWGQGTTLSVSS VL: DIQMTQTTSSLSASLGDRVTISCSASQDIFNYLNWYQQKPDGTVKLLIYYTSSLHSGVPSRFSGSGSGTDFSLTISNLEPEDIATYYCQQYSNLPYTFGGGTKLEIK | 82% | 205 pM | 48.7% | 0.14 nM |  |  |  |  |  |  |  |  |  |  |  |  |  |  |  | 
8 | 723C2 (mouse IgG1 backbone) (antibody, V domains shown) VH: EVQLVESGGGLVQPGGSLKLSCAASGFTFSDYYMSWVRQTPEKRLEWVAYISSGGGSSYYPDSVKGRFTISRDNTKNTLYLQMSSLKSEDTAVYYCARLPHYFAMDCWGQGTSVTVSS VL: EIVLTQSPTTMAASPGEKITITCSASSSISSDYLHWYQQKPGFSPELLIYRTSNLASGVPARFSGSGSGTSYSLTIGSMEAEDVATYYCQQGTSLPRAFGGGTKLEIK | 74% | 122 pM | 43.7% | 0.14 nM |  |  |  |  |  |  |  |  |  |  |  |  |  |  |  | 
9 | Antibody E (antibody, human IgG4 S228P, kappa, V domains shown, Humanized 723C2, human IgG4Pro/kappa; also called 723C2-IgG4Pro-461-40 with IgK-462-08) VH: EVQLVESGGGLVQPGGSLRLSCAASGFTFSDYYMSWVRQAPGKGLEWVAYISSGGGSSYYPDLVKGRFTISRDNAKQSLYLQMQSLRAEDTAVYYCARLPHYFAMDYWGQGTLVTVSS VL: DIQMTQSPSSLSASVGDRVTITCQASQSISSDYLHWYQQKPGKAPKLLIYRTSNLESGVPSRFSGSGSGTDFTFTISSLQPEDIATYYCQQGTSLPRAFGQGTKLEIKR |  |  |  |  |  |  |  | 47.8% | 8.1 pM | 59.2% | 8.1 pM | 2.77 nM | 0.000492 s⁻¹ | 178000 M⁻¹ s⁻¹ |  | 38.2 nM | 0.00663 s⁻¹ | 173000 M⁻¹ s⁻¹ |  | 
10 | Antibody A (antibody, human IgG4 S228P, kappa, V domains shown, Humanized 723C2, human IgG4Pro/kappa) VH: EVQLVESGGGLVQPGGSLRLSCAASGFTFSDYYMSWVRQAPGKGLEWVSYISSGGGSKYYPDLVKGRFTISRDNAKNSLYLQMSSLRAEDTAVYYCARLPHYFAMDYWGQGTLVTVSS VL: DIQMTQSPSSLSASVGDRVTITCSASQSISSDYLHWYQQKPGKAPKLLIYRTSNLASGVPSRFSGSGSGTDFTFTISSLQPEDIATYYCQQGTSLPRAFGQGTKLEIKR |  |  |  |  |  |  |  | 49% | 7.4 pM | 69.8% | 41.1 pM | 2.73 nM | 0.000434 s⁻¹ | 159000 M⁻¹ s⁻¹ |  | 26.5 nM | 0.00473 s⁻¹ | 178000 M⁻¹ s⁻¹ |  | 
11 | 313C12 (mouse IgG1 backbone) (antibody, V domains shown) VH: EVQLVESGGGLVKPGGSLKLSCAASGFTFSDYGMHWVRQTPEKGLEWIAYINSDSNTIYYADTVKGRFTISRDNARKTLYLQMTSLRSEDTAMYYCSPLVAPDYWGQGTTLTVSS VL: DIVMTQSQKFMSTTVGDRVSITCKASQNVGTAVAWYQQKPGQSPKLLIYSVSNRYTGVPDRFTGSGSGTDFTLTISNMQSEDLADYFCQQYSSYPFTFGAGTKLELK | 79% | 459 pM | 42.2% | 0.37 nM |  |  |  |  |  |  |  |  |  |  |  |  |  |  |  | 
